# Measurements as given in patent publication US20240294622A1 (SUZHOU TRANSCENTA THERAPEUTICS, published 2024).
# T1: hGREM1 (Peprotech) (human, UniProt O60565 25-184)
# T1 construct: also called biotin-hGremlin
# T1 sequence: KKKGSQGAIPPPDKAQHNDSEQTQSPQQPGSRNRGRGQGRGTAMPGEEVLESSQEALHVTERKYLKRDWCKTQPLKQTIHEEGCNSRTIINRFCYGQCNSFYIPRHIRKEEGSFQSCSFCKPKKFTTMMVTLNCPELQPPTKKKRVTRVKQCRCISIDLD
# T2: Mouse Gremlin-His (R&D) (mouse, UniProt O70326 25-184)
# T2 construct: Lys25-Asp184 with 10xHis, R&D 956-GR; also called mouse gremlin (R&D); mGREM1
# T2 sequence: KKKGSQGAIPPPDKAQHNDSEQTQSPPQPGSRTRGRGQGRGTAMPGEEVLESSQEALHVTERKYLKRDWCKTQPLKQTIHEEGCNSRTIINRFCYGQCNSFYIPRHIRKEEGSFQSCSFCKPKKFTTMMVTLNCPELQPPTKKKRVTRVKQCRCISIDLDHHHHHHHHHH
# T3: recombinant human BMP4 (human, UniProt P12644 293-408, limits assumed)
# T3 construct: also called hBMP4
# T3 sequence (looked up): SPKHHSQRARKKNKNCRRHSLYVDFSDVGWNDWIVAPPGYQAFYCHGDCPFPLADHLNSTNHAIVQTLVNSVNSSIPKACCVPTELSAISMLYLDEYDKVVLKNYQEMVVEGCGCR
# T4: XM5-his (human (hGREM1 with residues 123-143 …))
# T4 construct: Unpurified supernatant used; also called gremlin-DAN fusion protein XM5; chimeric hGREM1
# T4 chain: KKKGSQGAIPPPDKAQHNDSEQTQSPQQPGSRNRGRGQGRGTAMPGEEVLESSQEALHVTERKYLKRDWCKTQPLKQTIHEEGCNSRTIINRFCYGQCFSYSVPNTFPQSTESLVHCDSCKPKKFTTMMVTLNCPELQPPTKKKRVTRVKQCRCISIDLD
# T5: hGREM1 (source and construct not stated) (human, UniProt O60565 25-184)
# T5 construct: also called Gremlin; gremlin
# T5 sequence: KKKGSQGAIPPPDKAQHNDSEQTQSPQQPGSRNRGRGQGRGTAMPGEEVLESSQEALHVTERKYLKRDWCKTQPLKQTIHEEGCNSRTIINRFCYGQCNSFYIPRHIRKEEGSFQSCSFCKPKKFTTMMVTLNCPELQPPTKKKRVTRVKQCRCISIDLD
# B1: HGREM1-His (ACRO) (ligand, not shown: small tags and cut ends)
# chain: KKKGSQGAIPPPDKAQHNDSEQTQSPQQPGSRNRGRGQGRGTAMPGEEVLESSQEALHVTERKYLKRDWCKTQPLKQTIHEEGCNSRTIINRFCYGQCNSFYIPRHIRKEEGSFQSCSFCKPKKFTTMMVTLNCPELQPPTKKKRVTRVKQCRCISIDLD
# notes: Lys25-Asp184 of NP_037504 with C-terminal polyhistidine tag (ACRO GR1-H52H3); they are put here; also called hGREM1 (ACRO); human gremlin (ACRO)
# Tests used:
# [1] = molecular target: B1; assay: blocking ELISA: coated BMP4, chimeric antibody pre-incubated with gremlin, lower panel; blocked ligand BMP4
# Method: (§1) In addition, the ability of serial dilutions of antibodies provided herein to block Gremlin binding to human BMP2/4/7 was also examined via ELISA. Plates were coated with recombinant human BMP2/4/7 (0.5 μg/ml) overnight and then serial dilutions of antibodies were incubated with 1 μg/ml of human Gremlin-his modified for 1 h at RT before this complex was added to coated plates and allowed to incubate for an additional hour at RT. The plates were then washed and added with anti-his HRP (GenScript). Plates were then developed with a TMB solution and stopped by adding stop solution. The plates were read on a plate reader at 450 nm. […] The chimeric anti-gremlin 1 antibodies (69H5-chi) and chimeric anti-gremlin 1 antibodies (22F1-chi) also can inhibit the binding of gremlin to BMP2 and BMP4 (see, FIG. 3E and FIG. 3F). The chimeric anti-gremlin 1 antibodies (56C11-chi) can inhibit the binding of gremlin to BMP2 (see, FIG. 3E).
# [2] = molecular target: B1; assay: blocking ELISA: coated BMP2, chimeric antibody pre-incubated with gremlin, lower panel (Elisa blocking gremlin binding to BMP2); blocked ligand BMP2
# Method: as §1
# [3] = molecular target: T1, hGREM1 (Peprotech); assay: Biacore at 25 °C, Gremlin (Peprotech) on the chip, antibody as analyte
# Method: (§2) HGREM1 (Peprotech) was immobilized on the Biacore sensor chip. Kinetic experiments were carried out using HBS-EP+ as both the running buffer and the sample buffer. […] Antibody-antigen association was monitored for 180 s while dissociation in buffer was monitored for 360 s. Kinetic analysis was performed using Biacore T200 evaluation software to determine Ka and Kd values. KD was calculated from the experimentally determined Ka and Kd values as KD=Kd/Ka.
# [4] = molecular target: T1, hGREM1 (Peprotech); assay: SPR Biacore T200, 25 C, hGREM1 (Peprotech) immobilized, antibody 12.5-400 nM
# Method: as §2
# [5] = molecular target: B1; assay: competition ELISA, Gremlin-his 0.25 ug/ml binding to coated FGFR1-Fc; partial blocking
# Method: Next, 0.25 μg/ml of gremlin was selected to test the blocking activity. The ability of antibodies to block Gremlin binding to human FGFR1-Fc was examined via ELISA. Plates were coated with recombinant FGFR1-Fc (2 μg/ml) overnight and then serial dilutions of antibodies were incubated with 0.25 μg/ml of human Gremlin-his modified for 1 h at RT before this complex was added to coated plates and allowed to incubate for an additional hour at RT. The plates were then washed and added with anti-his HRP (GenScript). Plates were then developed with a TMB solution and stopped by adding stop solution. The plates were read on a plate reader at 450 nm. […] Humanized anti-GREM1 antibodies provided herein (e.g., Hu14E3, Hu22F1) are expected to show the similar technical effect as their chimeric counterparts in blocking the binding of hGREM1 to FGFR1.
# [6] = molecular target: T2, Mouse Gremlin-His (R&D); assay: ELISA on coated Mouse Gremlin-his, anti-mouse IgG-HRP
# Method: (§3) Clear polystyrene plates (BEAVER) were coated with 100 μl/well of a […] hGREM1 (ACRO) and mouse gremlin (R&D) in high pH coating buffer overnight at 4° C. Then the plates were washed once on an automatic plate washer using PBS+0.1% Tween 20 (Sigma). 100 μl of block solution consisting of PBS+1% BSA+1% normal goat serum+0.5% Tween 20 (Sigma) was added to each well and incubated at room temperature for 2 hours. Then 100 μl of antibodies in antibody dilution buffer containing PBS+1% BSA+1% normal goat serum+0.01% Tween 20 starting from 2 μg/ml and then serial dilutions were added to each well of the plate and incubated for 1 hours at room temperature. Afterward the plates were washed three times with 200 μl of PBS+0.1% Tween20 followed by adding 100 μl/well 1:10000 Goat anti mouse IgG-HRP (abcam), and incubate for 1 hour at room temperature. They were then washed 3× with PBS+0.1% Tween20. Finally, 100 µl/well of TMB (Pierce) was added to each well and after several minutes add 50 μl of stop solution to each well. The plates were read on a Multiscan FC microplate reader (Thermo Scientific) at […].
# [7] = molecular target: B1; assay: ELISA, coated hGREM1 (ACRO)
# Method: as §3
# [8] = molecular target: B1; assay: competition ELISA on captured human gremlin (Acro,0.5ug/ml), lower panel: hybridoma 22F1 titrated against a fixed amount of chimeric 14E3-C, bound chimeric antibody detected
# Method: (§4) Epitope binning of anti-gremlin hybridoma antibodies were performed using a competition ELISA assay. Clear polystyrene plates (BEAVER) were coated with 100 μl/well of a 0.5 μg/ml hGREM1 (ACRO) in high pH coating buffer overnight at 4° C. Then the plates were washed once on an automatic plate washer using PBS+0.1% Tween 20 (Sigma). 100 μl of block solution consisting of PBS+1% BSA+1% normal goat serum+0.05% Tween 20 (Sigma) was added to each well and incubated at room temperature for 2 hours. Then 50 μl/well of 20 μg/ml saturated antibodies (hybridoma antibodies) in antibody dilution buffer (PBS+1% BSA+1% normal goat serum+0.01% Tween 20) were then added to each well of the plate and incubate for 1 hour. Then add 50 μl/well of 40 ng/ml competitive antibodies (chimeric antibodies, e.g., 14E3-C, 22F1-C, 56C11-C, and 69H5-C) to each well of the plate and incubate for another 1 hour at room temperature. […] The plates were read on a plate reader at 450 nm. The failure of the second antibody to bind in the presence of saturating quantities of the first antibody indicates the two antibodies were in the same epitope bin; the success of the second antibody to bind in the presence of the saturating quantities of the first antibody indicates the two antibodies were in different epitope bins. […]
# (§5) The amount of chimeric antibody bound to gremlin were determined.
# [9] = molecular target: B1; assay: competition ELISA on captured human gremlin (Acro,0.5ug/ml), lower panel: hybridoma 22F1 titrated against a fixed amount of chimeric 22F1-C, bound chimeric antibody detected
# Method: as §4, §5
# [10] = molecular target: T6, recombinant human BMP2 (human, UniProt P12643 283-396); assay: ELISA: coated BMP2, gremlin titrated (sheet title: BMP2/4/7 binding to human gremlin-his)
# T6 construct: also called hBMP2
# [11] = molecular target: T3, recombinant human BMP4; assay: ELISA: coated BMP4, gremlin titrated (sheet title: BMP2/4/7 binding to human gremlin-his)
# Method: Gremlin is known to be able to bind to BMP proteins and is validated by the present disclosure. Briefly, gremlin-Fc was tested for its binding ability to BMP 2/4/7 immobilized on plate. Briefly, plates were coated with […] of recombinant human BMP2, BMP4) (hBMP4, Peprotech) or human BMP7 (R&D) overnight and wild-type gremlin-1 was added to coated plates and allowed to incubate for an additional hour at RT. The plates were then washed and plate bound biotin-hGremlin was detected with neutravidin conjugated with HRP (thermo). Plates were then developed with a TMB solution and stopped by adding stop solution. The plates were read on a plate reader at 450 nm.
# [12] = molecular target: B1; assay: ELISA, binding to hGremlin-his
# [13] = molecular target: T4, XM5-his; assay: ELISA: antibody coated, XM5-his supernatant titrated (axis: supernatant percentage, %), anti-his-HRP
# Method: (§6) Using a similar ELISA protocol mentioned above, binding of chimeric antibody 14E3 to XM5 or Gremlin were tested. […] The secondary antibody anti-his-HRP was used for detection.
# [14] = molecular target: T5, hGREM1 (source and construct not stated); assay: ELISA on hGREM1
# [15] = molecular target: B1; assay: ELISA: antibody coated, Gremlin-his titrated, anti-his-HRP; the concentration is that of Gremlin-his
# Method: as §6
# T6 sequence (P12643 283-396 limits assumed): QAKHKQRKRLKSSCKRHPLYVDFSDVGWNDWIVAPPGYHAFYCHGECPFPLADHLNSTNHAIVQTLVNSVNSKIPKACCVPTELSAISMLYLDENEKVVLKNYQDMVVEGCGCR
binder,measurement,setting,value
"22F1-C (chimeric antibody 22F1) (antibody, human IgG1, V domains shown, also called 22F1-chi; chimeric anti-gremlin1 antibody 22F1) VH: EAQLQQSGPELVKPGASVKISCKASGYSFTDYYMNWLKQSHGKSLEWIGDINPKDGDSGYSHKFKGKATLTVDKSSSTAYMELRSLTSEDSAVYYCASGFTTVVARGDYWGQGTTLTVSS VL: not shown",IC50 (read off the curve),[1],~4 nM
same,IC50 (read off the curve),[2],~2 nM
same,koff,[3],0.000556 s⁻¹
same,kon,[3],20400 M⁻¹ s⁻¹
same,Kd,[4],27.3 nM
same,IC50,[5],5.12 nM
"22F1 (antibody, V domains shown, mouse hybridoma antibody; also called hybridoma 22F1) VH: EAQLQQSGPELVKPGASVKISCKASGYSFTDYYMNWLKQSHGKSLEWIGDINPKDGDSGYSHKFKGKATLTVDKSSSTAYMELRSLTSEDSAVYYCASGFTTVVARGDYWGQGTTLTVSS VL: not shown",binding result,[6],no binding
same,EC50,[7],0.0141 µg/mL
same,IC50 (read off the curve),[8],~0.8 µg/mL
same,IC50 (read off the curve),[9],~0.8 µg/mL
B1,EC50 (read off the curve),[10],~0.2 µg/mL
same,EC50 (read off the curve),[11],~0.3 µg/mL
"14E3-C (chimeric antibody of 14E3) (antibody, V domains shown, also called chimeric 14E3; 14E3 hIgG1) VH: QIQLVQSGPELKKPGETVKISCKTSGSTFTTYGMAWMKQAPGKGLTWMGWINTLSGEPTYADDFKGRFAFSLKTSANTAYLQINNLKNEDAATYFCAREPMDYWGQGTSVIVSS VL: not shown",EC50,[12],0.0068 µg/mL
same,koff,[3],0.000882 s⁻¹
same,kon,[3],49900 M⁻¹ s⁻¹
same,binding result,[13],binds
same,EC50,[14],0.00524 µg/mL
same,Kd,[4],17.7 nM
same,EC50 (read off the curve),[15],~0.01 µg/mL
